Earlier results in PMC10167482.

Legend:
IFNAR2 (Homo sapiens) = IFNAR2 (Homo sapiens) (UniProt P48551)
IFNAR1 (Homo sapiens) = IFNAR1 (Homo sapiens) (UniProt P17181)
Sequence of UniProt P17181 (P17181 28-436): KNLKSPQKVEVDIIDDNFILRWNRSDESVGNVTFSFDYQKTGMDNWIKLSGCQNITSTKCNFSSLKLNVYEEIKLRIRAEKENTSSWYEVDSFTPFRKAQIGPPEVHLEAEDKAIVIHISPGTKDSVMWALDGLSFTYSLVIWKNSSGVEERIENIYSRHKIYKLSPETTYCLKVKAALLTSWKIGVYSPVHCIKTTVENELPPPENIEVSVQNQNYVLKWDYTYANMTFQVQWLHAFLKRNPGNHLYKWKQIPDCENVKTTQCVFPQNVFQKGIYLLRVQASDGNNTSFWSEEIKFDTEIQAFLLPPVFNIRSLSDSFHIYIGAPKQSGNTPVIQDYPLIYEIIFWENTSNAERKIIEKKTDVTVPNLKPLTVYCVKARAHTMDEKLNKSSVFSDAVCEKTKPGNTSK

Sequence of UniProt P48551 (P48551 27-243): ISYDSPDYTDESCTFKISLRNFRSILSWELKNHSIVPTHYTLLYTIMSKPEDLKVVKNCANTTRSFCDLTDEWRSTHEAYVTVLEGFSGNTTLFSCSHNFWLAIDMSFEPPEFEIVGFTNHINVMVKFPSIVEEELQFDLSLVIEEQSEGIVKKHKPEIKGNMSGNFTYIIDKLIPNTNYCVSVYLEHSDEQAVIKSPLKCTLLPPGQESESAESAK

Kd (IFNAR2 (Homo sapiens)): 0.2 nM | Kd (IFNAR1 (Homo sapiens)): 50 nM
Substance: IFN-β (from UniProt P01574)
